Laboratory results reported in the supplement of paper PMC10899765.
Several values for one entry are separate records, joined by “and”; a condition that tells them apart may be missing. Equal entries are not always repeated.

What was measured:
Conditions in all cases: 20 nM; 72 h
MCF10A [1] = experiment: percent viability (nuclei count relative to siNT); higher = more viable cells
Procedure: (§1)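 After 72 h, cells were fixed and stained with Hoechst and anti-fibrillarin, and nucleoli per nucleus were counted with CellProfiler. Values are plate-adjusted percent effect for the one-nucleolus and 5+ nucleoli phenotypes, normalised to siNT (0%) and to the positive controls siNOL11 or siKIF11 (100%), as the mean of biological triplicates. Percent viability is the nuclei count relative to siNT.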

MCF10A [2] = experiment: 5+ nucleoli phenotype percent effect (relative to siNT 0% and siKIF11 100%); higher = more cells with five or more nucleoli
Procedure: as §1

MCF10A [3] = experiment: one-nucleolus phenotype percent effect (relative to siNT 0% and siNOL11 100%); higher = more cells with one nucleolus (ribosome biogenesis inhibition)
Procedure: as §1

Sequence | percent viability (MCF10A [1]) | 5+ nucleoli phenotype percent effect (MCF10A [2]) | one-nucleolus phenotype percent effect (MCF10A [3])
CGAGGGCAUUUCAUGAUGCAGGC [hsa-miR-3616-3p] | 24.6% | -22% | 43.6%
UCUCAGUAAGUGGCACUCUGU [hsa-miR-4797-3p] | 47.4% | -38.9% | 57.2%
ACUGGACUUGGAGUCAGAAA [hsa-miR-378d] | 25.4% and 31.6% | 9.46% and 4.63% | 2.4% and 10.6%
GGGGCGCGGCCGGAUCG [hsa-miR-3178] | 93.3% | 51.5% | -32.2%
GGCUCAUGUGUCUGUCCUCUUC [hsa-miR-6847-3p] | 44.2% | 1.91% | -18%
CUUUCAGUCGGAUGUUUACAGC [hsa-miR-30e-3p] | 126% | 14.5% | -11.8%
AAAGUGCAUCCUUUUAGAGUGU [hsa-miR-519a-3p] | 160% | 44.1% | -15.2%
CACACACUGCAAUUACUUUUGC [hsa-miR-603] | 60.9% | 19.5% | -5.16%
AGGGUAAGCUGAACCUCUGAU [hsa-miR-555] | 32.4% | -11.2% | 17.6%
GGAGAUGGAGGUUGCAGUG [hsa-miR-1273f] | 62.9% | 1.46% | 20.3%
UGGGGAAGGCUUGGCAGGGAAGA [hsa-miR-6780b-5p] | 25.6% | -35.6% | 38%
AUAUGGGUUUACUAGUUGGU [hsa-miR-3115] | 25% | -8.18% | 27.9%
CUUGGGGCAUGGAGUCCCA [hsa-miR-4260] | 37.7% | 9.54% | -6.43%
UGCAAAAGUAAUUGCAGUUUUUG [hsa-miR-548aj-5p] | 81.8% | 4.35% | -16.2%
UAAAAUUUGCAUCCAGGA [hsa-miR-4282] | 66% | 22.1% | -28.5%
AUGGGGUGAGAUGGGGAGGAGCAGC [hsa-miR-6812-5p] | 23.7% | -19.9% | 12.2%
CUGGCCCUCUCUGCCCUUCCGU [hsa-miR-328] | 64% | 47.4% | -8.63%
AUACACAUACACGCAACACACAU [hsa-miR-466] | 38.7% | -1.51% | -17.2%
UGGGGGCUGGGAUGGGCCAUGGU [hsa-miR-6848-5p] | 22.5% | -4.7% | 7.99%
GGUUGGGCAGUGAGGAGGGUGUGA [hsa-miR-3147] | 26% | 31% | -13.3%
AAGUGUGCAGGGCACUGGU [hsa-miR-648] | 20.9% | -33.3% | 40.5%
CUGGGGGGAGGAGACCCUGCU [hsa-miR-7109-5p] | 38.9% | -2.63% | 29.9%
AGGUGCUCCAGGCUGGCUCACA [hsa-miR-3907] | 4.87% | -22.2% | 27.7%
UCCAUGUUUCCUUCCCCCUUCU [hsa-miR-4716-5p] | 28.8% | -43.5% | 45.4%

Sequence | percent viability (MCF10A [1]) | 5+ nucleoli phenotype percent effect (MCF10A [2]) | one-nucleolus phenotype percent effect (MCF10A [3])
CCUCACCAUCCCUUCUGCCUGC [hsa-miR-6511a-3p] | 41.3% | 24.1% | -11.2%
GUGCCAGCUGCAGUGGGGGAG [hsa-miR-1202] | 76.5% | 44.3% | -8.53%
AAAAGUAAUUGCGAGUUUUACC [hsa-miR-548a-5p] | 172% | 9.73% | -20.8%
UCCCUCUCCCACCCCUUGCAG [hsa-miR-6892-3p] | 52.2% | 42.4% | -29%
UCUCGCAUCAGGAGGCAAGG [hsa-miR-6872-5p] | 56% | 24.9% | -13%
GCAGCAUUCAUGUCCC [hsa-miR-4310] | 62.6% | 17.2% | -11%
UAAGUGCUUCCAUGUUUGAGUGU [hsa-miR-302d-3p] | 68% | 63.5% | -16.6%
UAAGGUGCAUCUAGUGCAGAUAG [hsa-miR-18a-5p] | 49.1% | -34.5% | 37.7%
UCUGGGGAUGAGGACAGUGUGU [hsa-miR-4700-5p] | 35.8% | -10.2% | 29%
GACACAUGACCAUAAAUGCUAA [hsa-miR-4643] | 109% | 36.8% | -11.7%
UUGCAGCUGCGGUUGUAAGGU [hsa-miR-5047] | 36.3% | -30.3% | 11.1%
CCCGCAGGUGAGAUGAGGGCU [hsa-miR-6886-5p] | 28.8% | -23.1% | 9.43%
AUGAAGCCUUCUCUGCCUUACG [hsa-miR-7843-3p] | 37.8% | -32.5% | 15.8%
CAAAGAGGAAGGUCCCAUUAC [hsa-miR-583] | 69.2% | -24.7% | 27.5%
ACUGGGAAGAGGAGCUGAGGGA [hsa-miR-4646-5p] | 35% | -6.37% | 21.9%
AUCCCCAGAUACAAUGGACAA [hsa-miR-2355-5p] | 68.5% | -14.8% | 1.32%
GGCCACUGAGUCAGCACCA [hsa-miR-4252] | 46.1% | 5.41% | -3.69%
AGGGAAGGGGACGAGGGUUGGG [hsa-miR-5196-5p] | 40.5% | 4.34% | 5.32%
AAGGGGGAAGGAAACAUGGAGA [hsa-miR-4716-3p] | 21.3% | -6.04% | 21.6%
AGAGGUUAUCCGUGUUAUGUUC [hsa-miR-655-5p] | 32.4% | -32.8% | 22.9%
GUGUGCGGAAAUGCUUCUGCUA [hsa-miR-147b] | 70.3% | 33.7% | -12.4%
AAAGUAGCUGUACCAUUUGC [hsa-miR-562] | 83.9% | 57% | -28.9%
GCUGACAGCAGGGCUGGCCGCU [hsa-miR-4526] | 59.2% | 16.9% | -0.679%
UGGAAAAAACUGGUGUGUGCUU [hsa-miR-3148] | 35.9% | -1.39% | -7.81%
